Reference: US20170065702A1 (CANGENE, published 2017)

T1: MARV Angola GPe (Marburg virus, Angola strain, UniProt Q1PD50 19-637)
T1 sequence: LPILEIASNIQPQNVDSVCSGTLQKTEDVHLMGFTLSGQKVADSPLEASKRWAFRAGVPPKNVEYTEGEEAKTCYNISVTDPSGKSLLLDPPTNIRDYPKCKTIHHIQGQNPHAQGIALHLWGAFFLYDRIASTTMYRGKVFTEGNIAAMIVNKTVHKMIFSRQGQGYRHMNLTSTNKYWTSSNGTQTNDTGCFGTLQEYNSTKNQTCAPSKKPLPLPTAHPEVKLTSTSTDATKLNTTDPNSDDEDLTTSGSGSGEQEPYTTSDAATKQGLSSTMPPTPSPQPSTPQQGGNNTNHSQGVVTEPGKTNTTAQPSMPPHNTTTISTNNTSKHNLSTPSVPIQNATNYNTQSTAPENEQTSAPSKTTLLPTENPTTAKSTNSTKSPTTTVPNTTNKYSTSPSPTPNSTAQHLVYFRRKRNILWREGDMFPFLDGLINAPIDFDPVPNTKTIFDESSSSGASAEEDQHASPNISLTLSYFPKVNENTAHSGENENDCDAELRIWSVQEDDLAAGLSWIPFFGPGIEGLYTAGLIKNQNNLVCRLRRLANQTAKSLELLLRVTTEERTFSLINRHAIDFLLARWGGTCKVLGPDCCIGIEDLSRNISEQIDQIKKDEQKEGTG

T2: MARV Ci67 GPe (Marburg virus, Ci67 strain, UniProt P35254 19-637)
T2 sequence: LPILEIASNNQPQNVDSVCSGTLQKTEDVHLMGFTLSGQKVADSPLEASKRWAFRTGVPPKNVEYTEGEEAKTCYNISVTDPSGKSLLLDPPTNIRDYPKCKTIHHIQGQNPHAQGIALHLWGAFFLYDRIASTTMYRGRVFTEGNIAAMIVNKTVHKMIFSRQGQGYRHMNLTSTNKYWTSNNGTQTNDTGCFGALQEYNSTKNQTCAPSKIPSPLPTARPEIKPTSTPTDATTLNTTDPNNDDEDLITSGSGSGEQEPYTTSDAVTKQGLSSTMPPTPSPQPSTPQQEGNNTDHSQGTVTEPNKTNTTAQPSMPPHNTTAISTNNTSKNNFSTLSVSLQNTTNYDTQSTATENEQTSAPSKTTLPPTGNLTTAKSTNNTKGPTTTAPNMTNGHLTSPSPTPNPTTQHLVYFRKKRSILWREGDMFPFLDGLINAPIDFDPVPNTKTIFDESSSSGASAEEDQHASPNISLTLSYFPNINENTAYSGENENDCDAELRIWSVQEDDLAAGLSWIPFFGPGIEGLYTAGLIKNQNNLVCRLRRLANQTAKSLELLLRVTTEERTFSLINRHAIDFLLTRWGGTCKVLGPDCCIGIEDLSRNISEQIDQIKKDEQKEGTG

T3: MARV Musoke GPe (Marburg virus, Musoke strain, UniProt P35253 19-637)
T3 sequence: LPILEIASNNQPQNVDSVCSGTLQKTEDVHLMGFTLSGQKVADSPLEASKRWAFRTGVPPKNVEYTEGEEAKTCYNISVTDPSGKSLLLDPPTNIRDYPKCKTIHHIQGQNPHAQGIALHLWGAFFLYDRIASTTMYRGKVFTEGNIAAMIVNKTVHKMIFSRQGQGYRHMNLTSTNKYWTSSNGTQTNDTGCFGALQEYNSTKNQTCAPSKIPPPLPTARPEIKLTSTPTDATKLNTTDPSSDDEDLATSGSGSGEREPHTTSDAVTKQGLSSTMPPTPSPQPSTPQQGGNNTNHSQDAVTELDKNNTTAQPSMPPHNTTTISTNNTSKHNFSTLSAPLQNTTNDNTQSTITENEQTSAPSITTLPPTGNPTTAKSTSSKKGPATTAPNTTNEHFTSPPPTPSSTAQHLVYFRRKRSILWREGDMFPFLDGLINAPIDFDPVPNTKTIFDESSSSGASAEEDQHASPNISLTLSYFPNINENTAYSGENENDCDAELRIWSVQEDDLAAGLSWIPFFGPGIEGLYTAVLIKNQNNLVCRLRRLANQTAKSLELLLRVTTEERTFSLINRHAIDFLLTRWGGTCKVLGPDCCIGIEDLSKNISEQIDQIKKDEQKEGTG


Key:
Marburg virus GP (Ravn) [1] = molecular target: T4, Marburg virus GP (Ravn) (Marburg virus, Ravn strain, UniProt Q1PDC7 19-681); experiment: cell-based or functional assay
MARV Angola GPe = molecular target: T1, MARV Angola GPe; experiment: ELISA on coated antigen (FIG. 2)
MARV Ci67 GPe = molecular target: T2, MARV Ci67 GPe; experiment: ELISA on coated antigen (FIG. 2)
MARV Musoke GPe = molecular target: T3, MARV Musoke GPe; experiment: ELISA on coated antigen (FIG. 2)
Marburg virus GP (Ravn) [2] = molecular target: T4, Marburg virus GP (Ravn); experiment: cell-based or functional assay; remark: listed apart in the source

Binder	VSVdG/GP Neutralization (Marburg virus GP (Ravn) [1])	binding result (MARV Angola GPe)	binding result (MARV Ci67 GPe)	binding result (MARV Musoke GPe)	neutralization of mucin containing (full length) MARV GP-pseudotyped VSV (Marburg virus GP (Ravn) [2])
CAN30G3 (antibody, V domains shown) VH: QVQLKESGPGLVAPSQSLSITCTVSGFSLTDYGITWIRQPPGKGLEWLGVIWGGGSAYYNLVLKSRLSISKDNSKSQVFLKMNSLQTDDTAMYYCAKHRTLITTAMDYWGQGISVTVSS VL: DVLMTQTPLSLPVSLGDQASISCRSSQNIVHSNGNTYLEWYLQKSGQSPKLLIYKVSNRFSGVPDRFSGSGSGTDFTLKISRVEAEDLGVYYCFQGSHFPWTFGGGTKLEIK	40%	no binding	no binding	no binding	~50%
CAN30G4 (antibody, V domains shown) VH: EVKLVESGGGLVKSGGSLKLSCAVSGFTFSTYAMSWVRQIPEKRLEWVATISNGGSYIYYSDSVKGRFTISRDNAKNTLYLQMSSLRSEDTAMYYCARHRESYRYDWFAYWGQGTLVTVSA VL: DVLMTQTPLSLPVSLGDQASISCRSSQNIVHSDGNTYLEWYLQKPGQSPKLLIYKFSNRFSGVPDRFSGSGSGTDFTLKISRVEAEDLGVYYCFQGSHVPPTFGAGTKLELK	50%	binds	binds	binds	–
CAN30G5 (antibody, V domains shown) VH: EVQLVESGGGLVQPKGSLKLSCAASGFAFNSYAMHWVCQAPGKGLEWVARIRIKSGNYATSYAGSVTDRFTVSRDDSQNLFYLQMNNLKTEDTAMYYCVREWEGAMDYWGQGTSVTVSS VL: DIVLTQSPLSLPVSLGDQASISCRSSQSLVHSNGNTYLHWYLQKPGQSPNLLIYKVSNRFSGVPDRFSGSGSGTDFTLKISRVEAEDLGVYFCSQSTHVPWTFGGGTKLEIK	50%	no binding	no binding	no binding	~50%
CAN40G1 (antibody, V domains shown) VH: EVQLQQSGPELVKPGASVKISCRTSGYTFTEYTIHWVKQSRGKSLEWIGGINPNHGGTLYNQKFKVKATLTVDKSSSTAYMELRSLTSEDSAVYYCARFTYDYWGQGTTLTVSS VL: DIVLTQSPASLAVSLGQRASISCKASQSVDHDGDSYMNWYQQKPGQPPKLLIYATSNLESGIPARFSGSGSGTDFTLNIHPVEEEDAATYYCQQSYEVPLTFGAGTKLELK	0%	binds	binds	binds	–
CAN54G2 (antibody, V domains shown) VH: QVQLQQSGTELVRPGTSVKISCKASGYDFTNFWLGWIKQRPGHGLEWIGDIYPGGDNTYYNEKFKGKVTLTADKSSNTAYMQFSSLTSEDSAVYFCFMILYTLDYWGQGTSVTVSS VL: not shown	40%	no binding	no binding	no binding	~50%
CAN30G1 (antibody, V domains shown) VH: QIQLVQSGPELKKPGETVKISCKASGYTFTNYGMNWVKQAPGKGLKWMGWINTYTGKPTYVDDFKGRFAFSLETSANTAYLQINNLKNEDTATYFCESGGYDEDYWGQGTTLTVSS VL: ENVLTQSPAIMSASPGEKVTMTCSASSSVTYMHWYQQKSSTSPKLWIYDTSKLASGVPGRFSGSGSGNSYSLTISSMEAEDVATYYCFQGSGYPYTFGGGTKLEIK	5%	binds	binds	binds	–
